From article PMC9956121
Each block holds one substance with its values, some of them ahead of it.

Experiments:
[1] = biological target: chicken TAPBPR, luminal domain (chicken (G. gallus)); experiment: SPR; biotinylated TAPBPR (about 1000 RU) on a streptavidin chip; HLA UV-irradiated 20 min at 365 nm just before injection at 0-20 μM; 25°C; 150 mM NaCl, 20 mM sodium phosphate pH 7.4, 0.1% Tween 20
[2] = biological target: chicken TAPBPR, luminal domain (chicken (G. gallus)); experiment: SPR; biotinylated TAPBPR (about 1000 RU) on a streptavidin chip; peptide-loaded HLA, not UV-irradiated, injected at 0-20 μM; 25°C; 150 mM NaCl, 20 mM sodium phosphate pH 7.4, 0.1% Tween 20
[3] = biological target: human TAPBPR (TAP binding protein, related), luminal domain (human); experiment: as above
[4] = biological target: human TAPBPR (TAP binding protein, related), luminal domain (human); experiment: SPR; biotinylated TAPBPR (about 1000 RU) on a streptavidin chip; HLA UV-irradiated 20 min at 365 nm just before injection at 0-20 μM; 25°C; 150 mM NaCl, 20 mM sodium phosphate pH 7.4, 0.1% Tween 20
[5] = biological target: HLA-A*02:06/hβ2m loaded with a placeholder peptide (human)
[6] = biological target: peptide-loaded HLA-A*02:01/hβ2m (photolabile peptide KILGFVFJV) (human)
[7] = biological target: peptide-deficient (empty) HLA-A*01:01/hβ2m (human)
[8] = biological target: chicken TAPBPR, luminal domain (chicken (G. gallus)); experiment: SPR; biotinylated TAPBPR on a streptavidin chip; MR1 C262S injected at 0-100 μM; 25°C; 150 mM NaCl, 20 mM sodium phosphate pH 7.4, 0.1% Tween 20
[9] = biological target: human TAPBPR (TAP binding protein, related), luminal domain (human); experiment: as above
[10] = biological target: hTAPBPR^RQ (K211R, R270Q), luminal domain, C94S (human); experiment: SPR; biotinylated TAPBPR (about 1000 RU) immobilised on a streptavidin chip; peptide-loaded HLA (photolabile peptide, no UV) flowed over at 0-20 µM; 25°C; 150 mM NaCl, 20 mM sodium phosphate pH 7.4, 0.1% Tween 20; 30 µl/min, 60 s injection, 180 s dissociation; kinetic fit or one site-specific binding …
[11] = biological target: hTAPBPR^FLQ (S104F, K211L, R270Q), luminal domain, C94S (human); experiment: as above
[12] = biological target: hTAPBPR^KRQ (R105K, K211R, R270Q), luminal domain, C94S (human); experiment: as above
[13] = biological target: peptide-deficient (empty) HLA-A*24:02/hβ2m (human)
[14] = biological target: peptide-deficient (empty) HLA-A*11:01/hβ2m (human)
[15] = biological target: hTAPBPR^RQ (K211R, R270Q), luminal domain, C94S (human); experiment: SPR; biotinylated hTAPBPR mutants immobilised on a streptavidin chip; Ac-6-FP-loaded MR1 C262S flowed over at 0-100 µM; 25°C; 150 mM NaCl, 20 mM sodium phosphate pH 7.4, 0.1% Tween 20; one site-specific binding fit
[16] = biological target: hTAPBPR^FLQ (S104F, K211L, R270Q), luminal domain, C94S (human); experiment: as above
[17] = biological target: hTAPBPR^KRQ (R105K, K211R, R270Q), luminal domain, C94S (human); experiment: as above
[18] = biological target: peptide-deficient (empty) HLA-A*02:01/hβ2m (human)
[19] = biological target: HLA-A*02:71/hβ2m loaded with a placeholder peptide (human)
[20] = biological target: HLA-A*02:77/hβ2m loaded with a placeholder peptide (human)
[21] = biological target: peptide-deficient (empty) HLA-A*02:01/hβ2m (human); remark: listed apart in the source
[22] = biological target: peptide-deficient (empty) HLA-B*37:01/hβ2m (human)
[23] = biological target: hTAPBPR^FLQ (S104F, K211L, and R270Q), soluble ectodomain (human); experiment: SPR; biotinylated TAPBPR (about 1000 RU) on a streptavidin chip; HLA UV-irradiated 20 min at 365 nm just before injection at 0-20 μM; 25°C; 150 mM NaCl, 20 mM sodium phosphate pH 7.4, 0.1% Tween 20
[24] = biological target: hTAPBPR^RQ (K211R and R270Q), soluble ectodomain (human); experiment: as above
[25] = biological target: chicken TAPBPR, luminal domain (chicken (G. gallus)); experiment: ITC; 150 μM pHLA-B*08:01 in the syringe titrated into 5 μM chTAPBPR in the cell, both with 0.45 mM FLRGRAJGL; 150 mM NaCl, 20 mM sodium phosphate pH 7.2; one-site model; apparent KD

Substance: peptide-deficient (empty) HLA-G*01:01/hβ2m (from UniProt P61769 21-119) (complex)
- Kd [1]: 11200 nM

Substance: peptide-deficient (empty) HLA-A*01:01/hβ2m (from UniProt P61769 21-119) (complex)
- Kd [1]: 1460 nM

Substance: peptide-loaded HLA-A*24:02/hβ2m (photolabile peptide VYGJVRACL) (from UniProt P61769 21-119) (peptide-MHC)
- Kd [2]: 17400 nM
- Kd [3]: 10900 nM

Substance: peptide-deficient (empty) HLA-A*11:01/hβ2m (from UniProt P61769 21-119) (complex)
- Kd [1]: 910 nM
- Kd [4]: 2040 nM

Substance: hTAPBPR^KRQ (R105K, K211R, and R270Q), soluble ectodomain (domain or fragment)
- k2overall of peptide exchange (FP), against hTAPBPR [5]: 9 fold
- k2overall of exchange of KILGFVFβFV-loaded HLA-A*02:01 with TAMRA-[…] (FP), against hTAPBPR [6]: 60 fold
- kapp of fluorescent peptide binding to HLA-A*01:01 with 5 μM TAPBPR (FP) [7]: 0.00013 s⁻¹

Substance: peptide-loaded HLA-A*30:01/hβ2m (photolabile peptide) (from UniProt P61769 21-119) (peptide-MHC)
- Kd [3]: 950 nM

Substance: peptide-deficient (empty) HLA-B*08:01/hβ2m (from UniProt P61769 21-119) (complex)
- Kd [1]: 1890 nM

Substance: peptide-loaded HLA-A*02:01/hβ2m (photolabile peptide KILGFVFJV) (from UniProt P61769 21-119) (peptide-MHC)
- Kd [3]: 9440 nM

Substance: peptide-loaded HLA-A*68:02/hβ2m (photolabile peptide) (from UniProt P61769 21-119) (peptide-MHC)
- Kd [2]: 560 nM
- Kd [3]: 220 nM

Substance: peptide-deficient (empty) HLA-A*29:02/hβ2m (from UniProt P61769 21-119) (complex)
- Kd [1]: 290 nM
- Kd [4]: 260 nM

Substance: peptide-deficient (empty) HLA-A*24:02/hβ2m (from UniProt P61769 21-119) (complex)
- Kd [1]: 1680 nM
- Kd [4]: 2540 nM

Substance: hTAPBPR^RQ (K211R and R270Q), soluble ectodomain (domain or fragment)
- k2overall of peptide exchange (FP), against hTAPBPR [5]: 9 fold
- k2overall of exchange of KILGFVFβFV-loaded HLA-A*02:01 with TAMRA-[…] (FP), against hTAPBPR [6]: 60 fold
- kapp of fluorescent peptide binding to HLA-A*01:01 with 5 μM TAPBPR (FP) [7]: 0.00014 s⁻¹

Substance: human TAPBPR (TAP binding protein, related), luminal domain (domain or fragment)
- k2overall of peptide exchange (FP) [18]: 1160 M⁻¹ s⁻¹
- k2overall of peptide exchange (FP) [19]: 335 M⁻¹ s⁻¹
- k2overall of peptide exchange (FP) [20]: 17200 M⁻¹ s⁻¹
- k2overall of peptide exchange (FP), against chTAPBPR [21]: 8 fold
- k2overall of peptide exchange (FP), against chTAPBPR [22]: 5 fold lower

Substance: peptide-deficient (empty) HLA-A*02:01/hβ2m (from UniProt P61769 21-119) (complex)
- Kd [23]: 81 nM
- Kd [1]: 2960 nM
- Kd [24]: 188 nM
- Kd [4]: 170 nM

Substance: peptide-loaded HLA-A*29:02/hβ2m (photolabile peptide) (from UniProt P61769 21-119) (peptide-MHC)
- Kd [2]: 170 nM
- Kd [3]: 190 nM

Substance: hTAPBPR^FLQ (S104F, K211L, and R270Q), soluble ectodomain (domain or fragment)
- k2overall of peptide exchange (FP), against hTAPBPR [5]: 14 fold
- k2overall of exchange of KILGFVFβFV-loaded HLA-A*02:01 with TAMRA-[…] (FP), against hTAPBPR [6]: 90 fold
- kapp of fluorescent peptide binding to HLA-A*01:01 with 5 μM TAPBPR (FP) [7]: 7e-05 s⁻¹

Results, then the substance that gave them:

- Kd [4]: 1510 nM
Substance: peptide-deficient (empty) HLA-E*01:03/hβ2m (from UniProt P61769 21-119) (complex)

- Kd [8]: 19200 nM
- Kd [9]: 98700 nM
Substance: acetyl-6-formylpterin-loaded MR1 C262S/hβ2m (from UniProt P61769 21-119) (complex)

- Kd [10]: 1310 nM
- Kd [11]: 1260 nM
- Kd [12]: 1380 nM
Substance: peptide-loaded HLA-A*02:01/hβ2m/KILGFVFJV (from UniProt P61769 21-119) (peptide-MHC)

- Kd [1]: 430 nM
- Kd [4]: 120 nM
Substance: peptide-deficient (empty) HLA-A*68:02/hβ2m (from UniProt P61769 21-119) (complex)

- overall exchange rate (FP), against hTAPBPR [13]: > 7 fold
- overall exchange rate (FP), against hTAPBPR [14]: > 17 fold
- kapp of fluorescent peptide binding to HLA-A*01:01 with 5 μM TAPBPR (FP) [7]: 0.00017 s⁻¹
Substance: chicken TAPBPR, luminal domain (domain or fragment)

- Kd [15]: 49500 nM
- Kd [16]: 48000 nM
- Kd [17]: 62000 nM
Substance: MR1 C262S loaded with acetyl-6-formylpterin (Ac-6-FP) (complex)

- Kd [1]: 1280 nM
- Kd [4]: 990 nM
Substance: peptide-deficient (empty) HLA-A*30:01/hβ2m (from UniProt P61769 21-119) (complex)

- Kd [2]: 3190 nM
- Kd [25]: 4600 nM
Substance: peptide-loaded HLA-B*08:01/hβ2m (photolabile peptide FLRGRAJGL) (from UniProt P61769 21-119) (peptide-MHC)

- Kd [1]: 2190 nM
- Kd [4]: 7020 nM
Substance: peptide-deficient (empty) HLA-B*37:01/hβ2m (from UniProt P61769 21-119) (complex)
